Experimental data: patent US20150344570A1 (published 2015)

T1: FcγRIIb extracellular domain with C-terminal His tag (human, UniProt P31994 43-217)
T1 construct: extracellular domain; also called FcgRIIb; 2b
T1 sequence (looked up): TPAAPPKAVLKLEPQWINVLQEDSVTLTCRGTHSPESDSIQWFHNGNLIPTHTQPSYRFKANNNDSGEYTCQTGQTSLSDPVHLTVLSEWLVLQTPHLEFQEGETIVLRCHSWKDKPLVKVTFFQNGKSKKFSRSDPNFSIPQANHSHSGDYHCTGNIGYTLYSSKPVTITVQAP


Each binder was assayed against T1, FcγRIIb extracellular domain with … (assay: SPR (Biacore), relative binding).

Binder	He/Con_2b
GpH7-A5/GpH7-B3 variant N325_06M/GpL16-k0 (antibody, human IgG1, kappa, also called He Ab N325_06M) heavy 1: not shown heavy 2: not shown light: DIVMTQSPLSLPVTPGEPASISCQASESLVHSNRNTYLHWYLQKPGQSPQLLIYKVSNRFSGVPDRFSGSGSGTDFTLKISRVEAEDVGVYYCSQNTHVPPTFGQGTKVEIERTVAAPSVFIFPPSDEQLKSGTASVVCLLNNFYPREAKVQWKVDNALQSGNSQESVTEQDSKDSTYSLSSTLTLSKADYEKHKVYACEVTHQGLSSPVTKSFNRGEC	217 % of HeCon Ab GpH7-A5/GpH7-B3/GpL16-k0
GpH7-A5/GpH7-B3 variant N325_09D/GpL16-k0 (antibody, human IgG1, kappa, also called He Ab N325_09D) heavy 1: not shown heavy 2: not shown light: DIVMTQSPLSLPVTPGEPASISCQASESLVHSNRNTYLHWYLQKPGQSPQLLIYKVSNRFSGVPDRFSGSGSGTDFTLKISRVEAEDVGVYYCSQNTHVPPTFGQGTKVEIERTVAAPSVFIFPPSDEQLKSGTASVVCLLNNFYPREAKVQWKVDNALQSGNSQESVTEQDSKDSTYSLSSTLTLSKADYEKHKVYACEVTHQGLSSPVTKSFNRGEC	124 % of HeCon Ab GpH7-A5/GpH7-B3/GpL16-k0
GpH7-A5/GpH7-B3 variant N325_20W/GpL16-k0 (antibody, human IgG1, kappa, also called He Ab N325_20W) heavy 1: not shown heavy 2: not shown light: DIVMTQSPLSLPVTPGEPASISCQASESLVHSNRNTYLHWYLQKPGQSPQLLIYKVSNRFSGVPDRFSGSGSGTDFTLKISRVEAEDVGVYYCSQNTHVPPTFGQGTKVEIERTVAAPSVFIFPPSDEQLKSGTASVVCLLNNFYPREAKVQWKVDNALQSGNSQESVTEQDSKDSTYSLSSTLTLSKADYEKHKVYACEVTHQGLSSPVTKSFNRGEC	169 % of HeCon Ab GpH7-A5/GpH7-B3/GpL16-k0
GpH7-A5/GpH7-B3 variant N325_07I/GpL16-k0 (antibody, human IgG1, kappa, also called He Ab N325_07I) heavy 1: not shown heavy 2: not shown light: DIVMTQSPLSLPVTPGEPASISCQASESLVHSNRNTYLHWYLQKPGQSPQLLIYKVSNRFSGVPDRFSGSGSGTDFTLKISRVEAEDVGVYYCSQNTHVPPTFGQGTKVEIERTVAAPSVFIFPPSDEQLKSGTASVVCLLNNFYPREAKVQWKVDNALQSGNSQESVTEQDSKDSTYSLSSTLTLSKADYEKHKVYACEVTHQGLSSPVTKSFNRGEC	171 % of HeCon Ab GpH7-A5/GpH7-B3/GpL16-k0
GpH7-A5/GpH7-B3 variant N325_08L/GpL16-k0 (antibody, human IgG1, kappa, also called He Ab N325_08L) heavy 1: not shown heavy 2: not shown light: DIVMTQSPLSLPVTPGEPASISCQASESLVHSNRNTYLHWYLQKPGQSPQLLIYKVSNRFSGVPDRFSGSGSGTDFTLKISRVEAEDVGVYYCSQNTHVPPTFGQGTKVEIERTVAAPSVFIFPPSDEQLKSGTASVVCLLNNFYPREAKVQWKVDNALQSGNSQESVTEQDSKDSTYSLSSTLTLSKADYEKHKVYACEVTHQGLSSPVTKSFNRGEC	197 % of HeCon Ab GpH7-A5/GpH7-B3/GpL16-k0

Further lines, results first:

He/Con_2b	Binder
114 % of HeCon Ab GpH7-A5/GpH7-B3/GpL16-k0	GpH7-A5/GpH7-B3 variant P331_15Y/GpL16-k0 (antibody, human IgG1, kappa, also called He Ab P331_15Y) heavy 1: not shown heavy 2: not shown light: DIVMTQSPLSLPVTPGEPASISCQASESLVHSNRNTYLHWYLQKPGQSPQLLIYKVSNRFSGVPDRFSGSGSGTDFTLKISRVEAEDVGVYYCSQNTHVPPTFGQGTKVEIERTVAAPSVFIFPPSDEQLKSGTASVVCLLNNFYPREAKVQWKVDNALQSGNSQESVTEQDSKDSTYSLSSTLTLSKADYEKHKVYACEVTHQGLSSPVTKSFNRGEC
114 % of HeCon Ab GpH7-A5/GpH7-B3/GpL16-k0	GpH7-A5/GpH7-B3 variant P331_07I/GpL16-k0 (antibody, human IgG1, kappa, also called He Ab P331_07I) heavy 1: not shown heavy 2: not shown light: DIVMTQSPLSLPVTPGEPASISCQASESLVHSNRNTYLHWYLQKPGQSPQLLIYKVSNRFSGVPDRFSGSGSGTDFTLKISRVEAEDVGVYYCSQNTHVPPTFGQGTKVEIERTVAAPSVFIFPPSDEQLKSGTASVVCLLNNFYPREAKVQWKVDNALQSGNSQESVTEQDSKDSTYSLSSTLTLSKADYEKHKVYACEVTHQGLSSPVTKSFNRGEC
116 % of HeCon Ab GpH7-A5/GpH7-B3/GpL16-k0	GpH7-A5/GpH7-B3 variant P331_10E/GpL16-k0 (antibody, human IgG1, kappa, also called He Ab P331_10E) heavy 1: not shown heavy 2: not shown light: DIVMTQSPLSLPVTPGEPASISCQASESLVHSNRNTYLHWYLQKPGQSPQLLIYKVSNRFSGVPDRFSGSGSGTDFTLKISRVEAEDVGVYYCSQNTHVPPTFGQGTKVEIERTVAAPSVFIFPPSDEQLKSGTASVVCLLNNFYPREAKVQWKVDNALQSGNSQESVTEQDSKDSTYSLSSTLTLSKADYEKHKVYACEVTHQGLSSPVTKSFNRGEC
120 % of HeCon Ab GpH7-A5/GpH7-B3/GpL16-k0	GpH7-A5/GpH7-B3 variant P238_03V/GpL16-k0 (antibody, human IgG1, kappa, also called He Ab P238_03V) heavy 1: not shown heavy 2: not shown light: DIVMTQSPLSLPVTPGEPASISCQASESLVHSNRNTYLHWYLQKPGQSPQLLIYKVSNRFSGVPDRFSGSGSGTDFTLKISRVEAEDVGVYYCSQNTHVPPTFGQGTKVEIERTVAAPSVFIFPPSDEQLKSGTASVVCLLNNFYPREAKVQWKVDNALQSGNSQESVTEQDSKDSTYSLSSTLTLSKADYEKHKVYACEVTHQGLSSPVTKSFNRGEC
110 % of HeCon Ab GpH7-A5/GpH7-B3/GpL16-k0	GpH7-A5/GpH7-B3 variant P238_19Q/GpL16-k0 (antibody, human IgG1, kappa, also called He Ab P238_19Q) heavy 1: not shown heavy 2: not shown light: DIVMTQSPLSLPVTPGEPASISCQASESLVHSNRNTYLHWYLQKPGQSPQLLIYKVSNRFSGVPDRFSGSGSGTDFTLKISRVEAEDVGVYYCSQNTHVPPTFGQGTKVEIERTVAAPSVFIFPPSDEQLKSGTASVVCLLNNFYPREAKVQWKVDNALQSGNSQESVTEQDSKDSTYSLSSTLTLSKADYEKHKVYACEVTHQGLSSPVTKSFNRGEC
312 % of HeCon Ab GpH7-A5/GpH7-B3/GpL16-k0	GpH7-A5/GpH7-B3 variant P238_04F/GpL16-k0 (antibody, human IgG1, kappa, also called He Ab P238_04F) heavy 1: not shown heavy 2: not shown light: DIVMTQSPLSLPVTPGEPASISCQASESLVHSNRNTYLHWYLQKPGQSPQLLIYKVSNRFSGVPDRFSGSGSGTDFTLKISRVEAEDVGVYYCSQNTHVPPTFGQGTKVEIERTVAAPSVFIFPPSDEQLKSGTASVVCLLNNFYPREAKVQWKVDNALQSGNSQESVTEQDSKDSTYSLSSTLTLSKADYEKHKVYACEVTHQGLSSPVTKSFNRGEC
